From FireProtDB (doi:10.1006/jmbi.1999.2852) come the findings set out here.

For this data set the following is noted: Pseudomonas aeruginosa (strain ATCC 15692 / DSM 22644 / CIP 104116 / JCM 14847 / LMG 12228 / 1C / PRS 101 / PAO1), 10 °C, GdnHCl, Fluorescence, reversible: yes (100%), whole UniProt chain shown.
The mark [1] stands for this setting: pH 4, phosphate/acetate 25 mM/25 mM/.
Where [2] appears, read: pH 4.7, phosphate/acetate 25 mM/25 mM/.

B1: Cytochrome c-551 wild type, P00099 (protein)
chain: MKPYALLSLLATGTLLAQGAWAEDPEVLFKNKGCVACHAIDTKMVGPAYKDVAAKFAGQAGAEAELAQRIKNGSQGVWGPIPMPPNAVSDDEAQTLAKWVLSQK
In the case of B1, the denaturant m value amounted to 3.3 kcal/mol/M (pH 3, citrate 15 mM); 2.8 kcal/mol/M under setting [1]; 3.1 kcal/mol/M under setting [2]; 3.3 kcal/mol/M (pH 7, Sodium phosphate 50 mM). Further, the “denaturant midpoint (higher = more stable)” value is, setting by setting: (pH 3, citrate 15 mM) 1 M; under setting [1], 2.1 M; under setting [2], 2.1 M; (pH 7, Sodium phosphate 50 mM) 1.8 M. The unfolding free energy was 3.3 kcal/mol (pH 3, citrate 15 mM); 5.9 kcal/mol under setting [1]; 6.6 kcal/mol under setting [2]; 6 kcal/mol (pH 7, Sodium phosphate 50 mM).
